Laboratory results from patent US20260166139A1.
Several values for one entry are separate records, joined by “and”; a condition that tells them apart may be missing. Equal entries are not always repeated.

B1: humanized antibody 8D2H1L1 (antibody, V domains shown)
VH: EVQLVESGGGLVQPGGSMRLSCAASGFTFSDNWMNWVRQAPGKGLEWLAQIRNKPYNYETYYSDSVKGRFTISRDDSKNSVYLQMNSLKTEDTGVYYCTAQFAYWGQGTLVTVSS
VL: DIQMTQSPSSLSASVGDRVTITCRTSENIYGGLNWYQRKQGKSPKLLIYGATNLASGMSSRFSGSGSGTDYTLKISSLHPDDVATYYCQNVLRSPFTFGSGTKLEIK
B2: monoclonal antibody 8D2 (antibody, V domains shown)
VH: EVKLDETGGGLVQPGRPMKLSCVASGFTFSDNWMNWVRQSPEKGLEWLAQIRNKPYNYETYYSDSVKGRFTISRDDSKSSVYLQMNNLRGEDMGIYYCTAQFAYWGQGTLVTVSA
VL: DIQMTQSPASLSASVGETVTITCGTSENIYGGLNWYQRKQGKSPQLLIFGATNLADGMSSRFSGSGSGRQYSLKISSLHPDDVATYYCQNVLRSPFTFGSGTKLEI
B3: 8D2 recombinant antibody, 8D2(Re) (antibody, V domains shown)
VH: B2 VH
VL: B2 VL

Legend:
murine CTLA4 (murine) [1] = biological target: murine CTLA4 (murine) (UniProt P09793); experiment: ELISA on coated CTLA4, source Mouse
murine CTLA4 (murine) [2] = biological target: murine CTLA4 (murine) (UniProt P09793); experiment: ELISA, coat murine CTLA4 0.5 ug/ml; antibody 0.003 ug/ml
murine CTLA4 (murine) [3] = biological target: murine CTLA4 (murine) (UniProt P09793); experiment: ELISA, coat murine CTLA4 0.5 ug/ml; antibody 1 ug/ml
murine CTLA4 (murine) [4] = biological target: murine CTLA4 (murine) (UniProt P09793); experiment: ELISA on coated CTLA4, source taken as Mouse; second unlabelled line under 8D2 / Mouse; the run in which 10D1 gave […] and 11.2.1 was not measured
murine CTLA4 (murine) [5] = biological target: murine CTLA4 (murine) (UniProt P09793); experiment: ELISA, coat murine CTLA4 0.5 ug/ml; antibody 0.01 ug/ml
murine CTLA4 (murine) [6] = biological target: murine CTLA4 (murine) (UniProt P09793); experiment: ELISA, coat murine CTLA4 0.5 ug/ml; antibody 0.1 ug/ml
murine CTLA4 (murine) [7] = biological target: murine CTLA4 (murine) (UniProt P09793); experiment: ELISA, coat murine CTLA4 0.5 ug/ml; antibody 0.3 ug/ml
murine CTLA4 (murine) [8] = biological target: murine CTLA4 (murine) (UniProt P09793); experiment: ELISA, coat murine CTLA4 0.5 ug/ml; antibody 0.03 ug/ml
murine CTLA4 (murine) [9] = biological target: murine CTLA4 (murine) (UniProt P09793); experiment: ELISA, coat murine CTLA4 0.5 ug/ml; antibody 0.001 ug/ml
murine CTLA4 (murine) [10] = biological target: murine CTLA4 (murine) (UniProt P09793); experiment: ELISA, coat murine CTLA4 0.5 ug/ml; antibody 0 ug/ml (blank)
murine CTLA4 (murine) [11] = biological target: murine CTLA4 (murine) (UniProt P09793); experiment: ELISA on coated CTLA4, source taken as Mouse

| Binder | EC50 (murine CTLA4 (murine) [1]) | absorbance at 450 nm (murine CTLA4 (murine) [2]) | absorbance at 450 nm (murine CTLA4 (murine) [3]) | EC50 (murine CTLA4 (murine) [4]) | absorbance at 450 nm (murine CTLA4 (murine) [5]) | absorbance at 450 nm (murine CTLA4 (murine) [6]) | absorbance at 450 nm (murine CTLA4 (murine) [7]) | absorbance at 450 nm (murine CTLA4 (murine) [8]) | absorbance at 450 nm (murine CTLA4 (murine) [9]) | absorbance at 450 nm (murine CTLA4 (murine) [10]) | EC50 (murine CTLA4 (murine) [11]) |
| --- | --- | --- | --- | --- | --- | --- | --- | --- | --- | --- | --- |
| B1 | 0.025 nM | – | – | – | – | – | – | – | – | – | – |
| B2 | 0.015 nM | 0.784 and 0.76 | 2.82 and 2.68 | 0.071 nM | 1.61 and 1.56 | 2.75 and 2.72 | 2.81 and 2.76 | 2.34 and 2.38 | 0.358 and 0.355 | 0.063 and 0.052 | – |
| B3 | 0.015 nM | 0.662 and 0.674 | 2.67 and 2.77 | – | 1.4 and 1.45 | 2.8 and 2.69 | 2.69 and 2.73 | 2.31 and 2.26 | 0.315 and 0.321 | 0.053 and 0.046 | 0.085 nM |
